# Results as given in US20250276075A1, “METHODS OF TREATING AXL-EXPRESSING CANCERS WITH ANTI-AXL ANTIBODIES, ANTIBODY FRAGMENTS AND THEIR IMMUNOCONJUGATES” (BIOATLA, INC., priority 2020, published 2025).
# “Also recorded” adds a separate entry of the source.
# T1: mouse Axl (Mus musculus, UniProt Q00993)
# T1 sequence (Q00993 19-888): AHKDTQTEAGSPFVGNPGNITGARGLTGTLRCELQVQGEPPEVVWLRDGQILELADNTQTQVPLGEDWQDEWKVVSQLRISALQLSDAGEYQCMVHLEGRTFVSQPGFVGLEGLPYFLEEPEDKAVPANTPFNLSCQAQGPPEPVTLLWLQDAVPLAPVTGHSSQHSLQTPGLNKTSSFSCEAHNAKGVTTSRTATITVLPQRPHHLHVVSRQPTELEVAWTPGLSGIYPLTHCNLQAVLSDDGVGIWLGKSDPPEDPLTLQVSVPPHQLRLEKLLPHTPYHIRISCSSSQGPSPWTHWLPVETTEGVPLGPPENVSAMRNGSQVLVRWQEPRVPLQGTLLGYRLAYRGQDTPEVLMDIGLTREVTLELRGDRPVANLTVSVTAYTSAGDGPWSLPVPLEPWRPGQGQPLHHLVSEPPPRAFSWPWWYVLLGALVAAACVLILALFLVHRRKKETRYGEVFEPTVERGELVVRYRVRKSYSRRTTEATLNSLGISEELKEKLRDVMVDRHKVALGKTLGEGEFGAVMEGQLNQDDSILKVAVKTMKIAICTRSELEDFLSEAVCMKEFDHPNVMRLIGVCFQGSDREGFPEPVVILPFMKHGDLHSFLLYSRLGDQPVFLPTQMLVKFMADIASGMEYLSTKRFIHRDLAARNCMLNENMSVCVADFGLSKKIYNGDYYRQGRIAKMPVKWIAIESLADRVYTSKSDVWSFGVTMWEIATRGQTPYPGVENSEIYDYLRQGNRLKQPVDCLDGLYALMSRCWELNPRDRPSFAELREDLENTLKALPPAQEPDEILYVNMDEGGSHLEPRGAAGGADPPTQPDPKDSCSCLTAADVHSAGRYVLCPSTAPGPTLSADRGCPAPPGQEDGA
# B1: Mecbotamab vedotin (conjugate, chains of the INN, looked up)
# VH: EVQLVQSGAEVKKPGATVKISCKVSGYSFWGATMNWIRQPPGKGLEWIGLIKPSNGGTSYNQKFKGRVTISADKSISTAYLQWSSLKASDTAMYYCAHGHYESYEAMDYWGQGTLVTVSS
# VL: DIQMTQSPSSLSASVGDRVTITCKASQDVVSAVAWYQQKPGQAPRLLIYWQDTRHTGVPSRFSGSGSGTEFTLTISSLQPDDFATYYCQEHFSPPLTFGQGTKVEIK
# modifications: MC-vc-PAB-MMAE conjugate
# Key:
# [1] = test system: advanced sarcoma; assay: Phase 1 clinical study of BA3011: antitumor activity (RECIST v1.1, change in sum of target lesions); assay type: in vivo, human
# Description: The primary efficacy endpoint in Phase 2 is objective response (OR) per RECIST v1.1 using blinded independent central review (BICR). Objective response rate (ORR) is defined as the proportion of subjects with a best overall response of confirmed CR or confirmed PR that occur prior to the initiation of subsequent anticancer treatment. ORR will be estimated with a 95% CI using the exact probability method for each sarcoma subtype and overall in each of the 2 treatment groups (BA3011 alone and in combination with nivolumab). Other efficacy endpoints are duration of response (DOR), progression-free survival (PFS), best overall response (OR), disease control rate (DCR), time to response (TTR), progression-free rate (PFR) at 12 weeks, overall survival (OS), and percent change from baseline in target lesion sum of diameters. All efficacy endpoints except PFS and OS will be summarized primarily based on the full analysis set (FAS). PFS and OS will be summarized based on the As-Treated Population. Time-to-event data will be summarized using Kaplan-Meier estimates. Response rates and their confidence intervals will be estimated using the exact probability method. Graphical analyses will include spider and waterfall plots for the change and best change from baseline in tumor size, respectively.
# Study BA3011-001 was an ongoing, multi-center, open-label, Phase 1/2 first-in-human trial of BA3011.
# (§1) In Phase 1 (NCT03425279), BA3011 was administered once (Q3W) or twice (2Q3W) every 3 weeks via intravenous (IV) infusion.
# [2] = BA3011 plasma exposure in monkey toxicology study; assay type: in vivo, cynomolgus monkey
# Experimental: Based on the results at the 5 and 10 mg/kg/dose, the no-observed-adverse-effect-level (NOAEL) of BA3011 was considered to be 1 mg/kg/dose for both males and females. […] The highest non-severely toxic dose (HNSTD) was 5 mg/kg/dose, with C0 on Day 22 at 111 μg/mL and AUC0-inf at 2370 μg·h/mL.
# [3] = target: T1, mouse Axl; assay: BA3011 binding to mouse Axl
# [4] = Phase 1 clinical study of BA3011: pharmacokinetics; assay type: in vivo, human
# Description: • PK of BA3011: plasma concentrations of ADC, total antibody and MMAE, and PK parameters, including Cmax and AUC. • Efficacy (expansion cohorts only): ORR, disease control rate (DCR), time to response (TTR), duration of response (DOR), best objective response (OR), progression-free survival (PFS), overall survival (OS), and percent change from baseline in tumor size. • Immunogenicity of BA3011: the number and percentage of patients who develop detectable anti-drug antibodies (ADAs).
# Sample collection timepoints for BA3011 PK, PD, and immunogenicity testing are presented in Table 18 (Phase 1) and Table 19 (Phase 2).
# as §1
# [5] = test system: human tumor cell line derived xenograft tumors expressing Axl; assay: BA3011 anti-tumor efficacy in xenograft mouse models; assay type: in vivo
# Experimental: Tumor cell lines representing NSCLC (LCLC103H), prostate (DU145), and pancreatic tumor (MIAPaCa2) were tested in this in vivo mouse model system. Once tumors were established at a size of about 150 mm3, animals were treated with BA3011 at the indicated dose levels following the indicated schedule. BA3011 induced greater than 70% TGI in 4 out of 7 models tested, as shown on FIG. 17D.
# [6] = test system: Axl expressing human cancer cell lines; assay: BA3011 in vitro functional assays of cellular toxicity; assay type: cell-based
# [7] = test system: cynomolgus monkey Axl; assay: BA3011 binding to cynomolgus monkey Axl
# [8] = at the dose and schedules tested
molecule,measurement,setting,value
B1,antitumor activity in sarcoma patients,[1]; Phase 1,correlated with higher levels of AXL tumor membrane expression; also recorded: evidence of antitumor activity was observed
same,confirmed partial responses,[1]; of 7 treatment refractory sarcoma patients with baseline TmPS≥70 dosed at 1.8 mg/kg (Q3w or 2Q3w),4
same,duration of response to therapy,"[1]; sarcoma patients, FIG. 24",Prolonged response to therapy
same,area under the concentration versus time curve (AUC)0-inf,"[2]; 1 mg/kg/dose, Day 22",376 µg·h/mL
same,group mean maximum plasma exposure (C0),"[2]; 1 mg/kg/dose, Day 22",20.0 µg/mL
same,AUC0-inf,[2]; 5 mg/kg/dose (HNSTD),2370 µg·h/mL
same,C0,"[2]; 5 mg/kg/dose (HNSTD), Day 22",111 µg/mL
same,binding to mouse Axl,[3],not mouse or rat Axl; also recorded: lacked binding to the rodent enzyme
same,PK profile,[4],approximately dose proportional
same,half-life,[4],approximately 4 days
same,body weight loss,[5]; [8],did not induce body weight loss
same,clinical signs of toxicity,[5]; [8],no other clinical signs of toxicity were noted
same,tumor growth inhibition (TGI) relative to control,[5]; in 4 out of 7 models tested,greater than 70%
same,cytotoxicity,[6]; normal conditions,reduced cytotoxicity
same,cellular toxicity,[6]; tumor conditions,induce cellular toxicity
same,cross-reactivity to the cynomolgus Axl protein,[7],cross-reacted
same,binding to cynomolgus monkey Axl,[7]; conditions mimicking the TME (pH 6.0-7.0),high affinity and specificity
same,binding to cynomolgus monkey Axl,[7]; conditions mimicking the normal tissue environment (pH 7.3-7.4),reduced binding
